The source of these data is article PMC9714555, “Hemocyte response to treatment of susceptible and resistant Asian corn borer (Ostrinia furnacalis) larvae with Cry1F toxin from Bacillus thuringiensis” (Frontiers in Immunology, 2022).

B1: hemolymph lipopolysaccharide-binding protein (LBP), His tag removed (natural protein)
chain: QKRYRNDYVYDANTDAFYKFHVNMAVHWRALTICKLEGATLMVPTSVQQIAQVHGMFKQYPDIGHYVWIGDDNADHESAEETPIIDLQPEVETEAPWERRCLVLTRRGEIQTQNCRYYQSFVCMVEAKNAPYDHRCDVYAAGYEYNTDVKSCYKIPRDIKTWNAAYAECQAHGAHLVVVNSVTERDVLQALMSRTPYLRTSFSPYHYIAGIRATSVIGSEVVYRTIFNETLEEAGFSEWADNEPNNQQGIEYCGSLHQRSGKYNDISCLSSFGYICEKERNE
modifications: Wild-type trypsin-activated core; the text prints neither the Cry1F subtype nor the limits. Cry1Fa assumed, with the conventional tryptic core 28-612.
B2: C-type lectin lectoxin-Phi1-like (C-lectoxin), His tag removed (natural protein)
chain: DVPKDYIVNPNDSHGYKLMYHAKTWTEARDDCANVGAKLAVPKTRDQFEFIQKIVRSMQYQSIVGTEYKLLVWLGISNLKNYQVWANVDGENIEDTEFHTWAGQNGLKSENPAEPHCVGMDSMNFGLRDWWCHQRQPYICEILTVQNATQ
modifications: Wild-type trypsin-activated core; the text prints neither the Cry1F subtype nor the limits. Cry1Fa assumed, with the conventional tryptic core 28-612.
B3: CD63 antigen-like (CD63) tetraspanin, His tag removed (natural protein)
chain: KGNAEALVQKQLYETMQLYTHDVVVTRLWDEVQEDFSCCGVNNASDWLAPLGTANTDQGLPLSCCQFPFGTITVFNCTMATPAPTLRTEGCSTAFGAWVQSHAGS
modifications: Wild-type trypsin-activated core; the text prints neither the Cry1F subtype nor the limits. Cry1Fa assumed, with the conventional tryptic core 28-612.
B4: C-type mannose receptor 2-like (C-MR2), His tag removed (natural protein)
chain: SELNTSKSNWFRPDYSYSERTGGWFKFHSVPATWEDARLQCYYEGAELVSPFNENIIQKMIMLMDVNEPYIFTGIHSTFSKGVYTSVGGVPLHEMPVSLHSRDVSGNCVTMRSNGRVEARNCSSQYPYICFKKGPEHLTSSVCGADQEYKYEQRTGSCYKFHTLGRTWPQAFRVCVAEGGHLAIINSDVEADVIRGIFQNYPDDAFKADAKYAASIGFQGWGAVKIWWTIHGQTLQDAGYSKWDKFVPDMRSTRHYCGAVGRNGTLSHIECEGVTFPAICEKKADLV
modifications: Wild-type trypsin-activated core; the text prints neither the Cry1F subtype nor the limits. Cry1Fa assumed, with the conventional tryptic core 28-612.

Chain of Trypsin-activated Cry1F toxin from Bacillus thuringiensis (Q03746 28-612 limits assumed): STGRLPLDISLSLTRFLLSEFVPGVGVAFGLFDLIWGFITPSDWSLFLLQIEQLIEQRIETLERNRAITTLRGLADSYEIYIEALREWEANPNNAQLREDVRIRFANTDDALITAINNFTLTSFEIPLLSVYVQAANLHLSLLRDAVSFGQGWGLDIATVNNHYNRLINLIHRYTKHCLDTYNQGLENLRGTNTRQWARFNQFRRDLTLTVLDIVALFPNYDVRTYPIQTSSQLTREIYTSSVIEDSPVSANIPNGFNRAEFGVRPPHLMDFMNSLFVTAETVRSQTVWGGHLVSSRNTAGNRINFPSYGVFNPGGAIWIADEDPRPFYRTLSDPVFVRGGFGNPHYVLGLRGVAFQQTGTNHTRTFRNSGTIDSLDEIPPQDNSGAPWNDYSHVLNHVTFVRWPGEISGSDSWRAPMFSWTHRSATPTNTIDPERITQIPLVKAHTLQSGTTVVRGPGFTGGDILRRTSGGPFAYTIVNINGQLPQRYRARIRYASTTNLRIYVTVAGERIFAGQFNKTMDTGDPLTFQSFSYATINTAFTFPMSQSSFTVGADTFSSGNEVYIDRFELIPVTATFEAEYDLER

This assay has as its target Trypsin-activated Cry1F toxin from Bacillus thuringiensis (Bacillus thuringiensis, UniProt Q03746 1-1174). Nature of the assay: SPR; Biacore 8K; activated Cry1F immobilised on a CM5 chip (10 mM sodium acetate pH 4.0); analytes without His tag in 10 mM HEPES, 150 mM NaCl, 3 mM EDTA, 0.005% Tween-20, pH 7.4; 30 uL/min, association 120 s, dissociation 280 s; 1:1 binding model. To be noted: both partners purified. On the technique in general: Surface plasmon resonance follows binding to a sensor surface in real time, without labels.
On to B1, for which binding was put at a Kd of 119 nM, the koff (usually the first-order rate constant of dissociation) came out at 0.00294 s⁻¹ and the kon (commonly the second-order rate constant of association) came to 24700 M⁻¹ s⁻¹.

For the molecule B2, the Kd – broadly, a measure of binding affinity in units of concentration – turned out to be 46.6 nM; the dissociation rate constant (koff) came to 0.00513 s⁻¹; the kon turned out to be 110000 M⁻¹ s⁻¹.

The molecule B3 returned a Kd of 294 nM, a koff of 0.00474 s⁻¹ and an on-rate constant (kon) of 16100 M⁻¹ s⁻¹.

B4 came in with a dissociation constant Kd of 22.1 nM, a koff of 0.0041 s⁻¹ and a kon of 185000 M⁻¹ s⁻¹.
